Measured values: US20240327523A1 (University of California, published 2024)

Key:
[1] = molecular target: T1, Fc-CD94 (biotinylated Fc fusion protein with the extracellular domain of human CD94 fused at the C-terminal … (human, UniProt Q13241 32-179, biotinylated on the biotin-acceptor-tag (~90% biotinylation))); assay: ELISA
T1 chain: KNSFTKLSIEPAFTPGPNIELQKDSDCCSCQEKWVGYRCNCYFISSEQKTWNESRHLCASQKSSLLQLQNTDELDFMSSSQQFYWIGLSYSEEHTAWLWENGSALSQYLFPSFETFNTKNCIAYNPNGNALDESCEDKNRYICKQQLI

[2] = molecular target: T2, Fc-CD94 (biotinylated Fc fusion protein with the extracellular domain of human CD94 fused at the C-terminal … (human, UniProt Q13241 32-179, biotinylated on the biotin-acceptor-tag (~90% biotinylation))); assay: multipoint ELISA of purified Fab
T2 construct: extracellular domain; Expressed in Expi293 cells; also called CD94 Fc fusion protein; Fc-CD94 fusion protein; not shown: biotin-acceptor-tag at the N-terminus; human IgG1 Fc; TEV proteolysis site between the ECD and Fc-domain
T2 sequence (looked up): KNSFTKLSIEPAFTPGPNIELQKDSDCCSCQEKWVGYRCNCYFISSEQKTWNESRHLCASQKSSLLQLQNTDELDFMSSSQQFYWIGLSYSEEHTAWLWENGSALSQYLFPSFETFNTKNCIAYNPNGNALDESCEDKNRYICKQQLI

[3] = molecular target: T3, human CD94 expressed on Ba/F3 cells (human, UniProt Q13241 1-179); assay: flow cytometry staining of Ba/F3 transfectants, PE-conjugated anti-human IgG1
T3 construct: whole, on cells; Mouse Ba/F3 cells stably transduced with a retroviral vector encoding human CD94; also called Ba/F3 transfectants expressing human CD94
T3 sequence (looked up): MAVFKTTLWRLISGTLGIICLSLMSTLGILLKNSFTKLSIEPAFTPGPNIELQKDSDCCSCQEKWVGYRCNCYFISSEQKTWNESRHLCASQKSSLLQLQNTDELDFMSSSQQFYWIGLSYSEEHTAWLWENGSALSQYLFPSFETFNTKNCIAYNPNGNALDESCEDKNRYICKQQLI
Protocol: Mouse Ba/F3 cells were stably transduced with retroviral vectors encoding human CD94 or with human CD94, human NKG2C, and human DAP12 as described in Lanier, L. L., B. C. Corliss, J. Wu, and J. H. Phillips. 1998. Association of DAP12 with activating CD94/NKG2C NK cell receptors. Immunity 8:693-701. PMID: 9655483. The Ba/F3 transfectants were incubated with phosphate buffered saline (unstained) or with the rab22 JIS002 rab 22 or JSI002 rab 23 antibodies, washed, and then stained with PE-conjugated anti-human IgG1 using standard methods.

[4] = molecular target: T1, Fc-CD94 (biotinylated Fc fusion protein …); assay: BLI (Octet)
[5] = molecular target: T2, Fc-CD94 (biotinylated Fc fusion protein …); assay: assay not given; IgG affinity was measured by Octet BLI on immobilized Fc-CD94 (FIG. 3)
Protocol: An octet assay was used to measure the affinity of IgG for the two binders JLS002-rAB22 and JLS002-rAB23. An Octet RED384 (ForteBio) instrument was used to measure the affinity of IgG for the two binders, JLS002-rAB22 and JLS002-rAB23. Fc-CD94 fusion protein was immobilized on a bio-layer interfrometry biosensor coated with streptavidin.
After blocking with PBST buffer (PBS+[…]) containing 10 μM of biotin, the IgGs being tested were loaded for 15 minutes followed by change to PBST buffer without IgG for ˜30 minutes. The kinetic binding curve was recorded.

B1: JLS002-rAB23 Fab (Fab, V domains shown)
VH: EVQLVESGGGLVQPGGSLRLSCAASGFNVYSSSIHWVRQAPGKGLEWVASISSYSGSTSYADSVKGRFTISADTSKNTAYLQMNSLRAEDTAVYYCARYGYYMSGAMDYWGQGTLVTVSS
VL: DIQMTQSPSSLSASVGDRVTITCRASQSVSSAVAWYQQKPGKAPKLLIYSASSLYSGVPSRFSGSRSGTDFTLTISSLQPEDFATYYCQQKKAYSLITFGQGTKVEIK
notes: Fab expressed and purified after phage selection
For B1, which EC50 [1] is on record?
The EC50 was 2.98 nM.

Does B1 bind [2]?
Result: binds

B2: JLS002-rAB23 IgG (antibody, V domains shown)
VH: EVQLVESGGGLVQPGGSLRLSCAASGFNVYSSSIHWVRQAPGKGLEWVASISSYSGSTSYADSVKGRFTISADTSKNTAYLQMNSLRAEDTAVYYCARYGYYMSGAMDYWGQGTLVTVSS
VL: DIQMTQSPSSLSASVGDRVTITCRASQSVSSAVAWYQQKPGKAPKLLIYSASSLYSGVPSRFSGSRSGTDFTLTISSLQPEDFATYYCQQKKAYSLITFGQGTKVEIK
notes: also called JSI002 rab 23
Does B2 bind [3]?
Result: binds

And the Kd [4]?
The Kd was 0.94 nM.

Does B2 bind [5]?
Result: binds

B3: JLS002-rAB22 Fab (Fab, V domains shown)
VH: EVQLVESGGGLVQPGGSLRLSCAASGFNVYSSSIHWVRQAPGKGLEWVAYISSYSGYTYYADSVKGRFTISADTSKNTAYLQMNSLRAEDTAVYYCARGRYQGMDYWGQGTLVTVSS
VL: DIQMTQSPSSLSASVGDRVTITCRASQSVSSAVAWYQQKPGKAPKLLIYSASSLYSGVPSRFSGSRSGTDFTLTISSLQPEDFATYYCQQYAYHLITFGQGTKVEIK
notes: as for B1
With B3 as the binder, how does the EC50 [1] read?
The EC50 was 3.42 nM.

Does B3 bind [2]?
Result: binds

B4: JLS002-rAB22 IgG (antibody, V domains shown)
VH: EVQLVESGGGLVQPGGSLRLSCAASGFNVYSSSIHWVRQAPGKGLEWVAYISSYSGYTYYADSVKGRFTISADTSKNTAYLQMNSLRAEDTAVYYCARGRYQGMDYWGQGTLVTVSS
VL: DIQMTQSPSSLSASVGDRVTITCRASQSVSSAVAWYQQKPGKAPKLLIYSASSLYSGVPSRFSGSRSGTDFTLTISSLQPEDFATYYCQQYAYHLITFGQGTKVEIK
notes: also called rab22 JIS002 rab 22
Does B4 bind [3]?
Result: binds

And the Kd [4]?
The Kd was 1.74 nM.

Does B4 bind [5]?
Result: binds
